Biological target: T1, full-length hFLT3 (Homo sapiens, UniProt P36888)
T1 construct: host or cells: HEK293T
T1 sequence (P36888 27-993): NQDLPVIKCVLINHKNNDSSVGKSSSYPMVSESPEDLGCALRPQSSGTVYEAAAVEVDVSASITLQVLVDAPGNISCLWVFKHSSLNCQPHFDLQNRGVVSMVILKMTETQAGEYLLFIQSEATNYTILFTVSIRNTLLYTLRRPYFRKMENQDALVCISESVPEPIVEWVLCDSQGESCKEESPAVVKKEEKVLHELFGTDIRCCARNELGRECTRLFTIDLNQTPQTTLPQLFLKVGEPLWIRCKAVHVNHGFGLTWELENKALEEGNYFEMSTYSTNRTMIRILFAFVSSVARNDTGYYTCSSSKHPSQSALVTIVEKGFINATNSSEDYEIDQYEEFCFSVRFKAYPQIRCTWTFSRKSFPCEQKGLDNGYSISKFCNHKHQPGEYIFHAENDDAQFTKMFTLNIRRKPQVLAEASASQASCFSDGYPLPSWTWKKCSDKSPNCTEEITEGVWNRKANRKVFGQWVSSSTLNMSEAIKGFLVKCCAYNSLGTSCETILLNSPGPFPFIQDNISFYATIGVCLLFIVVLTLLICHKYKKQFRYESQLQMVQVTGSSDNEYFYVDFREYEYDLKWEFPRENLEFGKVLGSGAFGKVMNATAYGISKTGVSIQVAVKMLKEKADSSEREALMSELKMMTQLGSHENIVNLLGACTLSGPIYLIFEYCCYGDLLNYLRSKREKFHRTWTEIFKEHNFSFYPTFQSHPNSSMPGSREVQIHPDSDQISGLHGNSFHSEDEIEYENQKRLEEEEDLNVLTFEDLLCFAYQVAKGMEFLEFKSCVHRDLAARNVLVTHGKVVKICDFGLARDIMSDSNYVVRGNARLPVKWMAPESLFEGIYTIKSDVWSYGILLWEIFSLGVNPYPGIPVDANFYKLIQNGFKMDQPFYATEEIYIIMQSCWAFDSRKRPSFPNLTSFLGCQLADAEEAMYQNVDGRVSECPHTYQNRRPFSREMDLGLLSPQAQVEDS
Assay: TR-FRET displacement of Red-FL binding, HEK cells expressing full-length hFLT3
Details: HEK cells expressing full-length hFLT3, 0.5 nM Red-FL
Protocol: The binding of the A3 antibody to full-length hFLT3 and mFLT3 was measured by displacement of extracellular FL binding on recombinant HEK cells by using time-resolved fluorescence resonance energy transfer (TR-FRET).
Chemicals and reagents. The Tag-lite® labeling medium was from Cisbio Bioassays (Condolet, France). The Lumi4-Tb derivative of O6-Benzylguanine was synthesized by Cisbio Bioassays and is commercialized as SNAP-Lumi4-Tb (Cisbio Bioassays, Ref. SSNPTBE).
A recombinant rh-FLT3-L was produced as previously reported (Verstraete K, et al. Efficient production of bioactive recombinant human Flt3 ligand in E. coli. Protein J, 2009 28: 57-65) and labeled with a red fluorescent probe (Red-FL). Poly-L-ornithine (MW of 30,000-70,000 daltons) was from Sigma-Aldrich. The plasmids encoding for the SNAP tagged human FLT3 (pSNAP-hFLT3) or the mouse FLT3 (pSNAP-mFLT3) used for transient transfection was obtained from Cisbio Bioassays. Monoclonal antibodies against FLT3 (8F2) and phosphotyrosine FLT3 (PY969) were purchased from Cell Signaling Technology and labeled with Lumi4-Tb and d2 respectively, by Cisbio.
Cell culture. HEK293T cells, used for binding assays, were maintained in DMEM Glutamax (Invitrogen) supplemented with antibiotics (penicillin 50 U/ml, streptomycin 50 μg/ml) and 10% heat-inactivated Fetal Calf Serum.
Transfection procedures. […]

B1: A3 antibody: human monoclonal antibody against FLT3; VH SEQ ID NO:1, VL SEQ ID NO:2 (antibody, V domains shown)
VH: EVQLVESGGSLVKPGGSLRLSCAASGFTFSNSYMNWVRQAPGKGLEWISDISGSSRDIDYADFVKGRFTISRDNATNSLYLQMNSLRAEDTAVYYCVRSGNSGMDVWGRGTLVTVSS
VL: QSVLTQPASVSGSPGQSITISCAGTSSDVGGGYYVSWYQQHPGKAPKLMIYYDSYRPSGVSNRFSGSKSGNTASLTISGLQAEDEADYYCSSYTNNSTRVFGGGTKLEIK
modifications: Synthetic VH domain of A3; Synthetic VL region of A3
IC50, displacement of FL binding: about 17 μg/ml
